# Measured values from patent US20260109770A1 (REMD BIOTHERAPEUTICS, published 2026).
# Numbering of substitutions follows the chain as printed. Names may count otherwise. Like-named read-outs stand apart in the source and are kept apart here.
# T1: biotinylated recombinant human CTLA-4-Fc chimera (#786704, BioLegend) (human, UniProt P16410 37-162, biotinylated)
# T1 construct: Bought reagent; Fc part of the bought chimera not given
# T1 sequence (looked up): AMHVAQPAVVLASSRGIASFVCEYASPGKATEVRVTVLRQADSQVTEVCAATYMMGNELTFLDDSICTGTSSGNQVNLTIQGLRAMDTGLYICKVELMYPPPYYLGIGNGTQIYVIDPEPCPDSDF
# T2: human CCR4 (hCCR4) (human, UniProt P51679 1-360)
# T2 construct: whole, on cells
# T2 sequence (looked up): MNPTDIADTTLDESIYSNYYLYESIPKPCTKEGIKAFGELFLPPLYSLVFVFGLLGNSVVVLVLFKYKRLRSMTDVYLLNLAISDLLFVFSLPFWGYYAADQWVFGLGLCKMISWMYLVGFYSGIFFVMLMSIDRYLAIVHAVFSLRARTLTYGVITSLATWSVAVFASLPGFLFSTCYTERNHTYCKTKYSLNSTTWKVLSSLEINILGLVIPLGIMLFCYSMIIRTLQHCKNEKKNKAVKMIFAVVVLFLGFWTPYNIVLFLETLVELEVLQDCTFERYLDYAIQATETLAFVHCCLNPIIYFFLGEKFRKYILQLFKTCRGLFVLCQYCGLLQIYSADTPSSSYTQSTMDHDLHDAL
# B1: humanized antibody 41E1C2A5-HC3+LC4 (antibody, human IgG1, kappa, V domains shown)
# VH: EVQLVESGGGLVQPGGSLKLSCAASGFSFNAYAMNWVRQASGKGLEWVARIRSKSNNYATYYADSVKDRFTISRDDSKNTAYLQMNSLKTEDTAVYFCVRGGTYGSSSYFDYWGQGTTVTVSS
# VL: DIVMTQSPLSLPVTPGEPASIPCRSSKSLLHSNGNTYLYWFLQKPGQSPQLLIYRMSNLASGVPDRFSGSGSGTAFTLKISRVEAEDVGVYYCMQHLEYPFTFGGGTKLEIKR
# B2: humanized antibody 504E12D8D12-HC1+LC1 (antibody, human IgG1, kappa, V domains shown)
# VH: EVQLVESGGGLVQPGGSLKLSCAASGFSFNTYAMNWVRQASGKGLEWVGRIRTKSNNYATYYAASVKDRFTISRDDSKNTAYLQMNSLKTEDTAVYYCTRGGSGLNYVRYFDVWGQGTTVTVSS
# VL: B1 VL with S7T, L9P, T14N, P22S, F41Y, T74S, A75D, R82W
# B3: humanized antibody 41E1C2A5-HC4+LC2 (antibody, human IgG1, kappa, V domains shown)
# VH: B1 VH with K78E
# VL: B1 VL with P22S
# B4: humanized antibody 504E12D8D12-HC1+LC1(G34A) (antibody, human IgG1, kappa, V domains shown)
# VH: B2 VH
# VL: B1 VL with S7T, L9P, T14N, P22S, G34A, F41Y, T74S, A75D, R82W
# B5: murine-human chimeric (human IgG1) antibody 531B9B1C9 (antibody, V domains shown)
# VH: EVQLVESGGGLVQPKGSLKLSCAASGFSFNAYAMNWVRQAPGKGLDWVARIRSKSNNYATYYADSVKDRFTISRDDSESMLYLQMNNLKTEDTAMYFCVRQTYGSRDYAMDYWGQGTSVTVSS
# VL: DVVMTQTPLSLPVSLGDQASISCRSSQSLVHSNGNTYLHWYLQKPGQSPKLLIYKVSNRFSGVPDRFSGSGSGTDFTLKISRVEAEDLGVYFCCQSTHVPPYTFGGGTKLEIKR
# notes: Chimeric antibody derived from murine antibody A13 and human IgG1
# B6: bispecific antibody FP578-01 (CCR8/CTLA-4) (bispecific antibody, human IgG1, kappa)
# heavy: not shown
# light: DIVMTQTPPSLPVNPGEPASISCRSSKSLLHSNANTYLYWYLQKPGQSPQLLIYRMSNLASGVPDRFSGSGSGSDFTLKISWVEAEDVGVYYCMQHLEYPFTFGGGTKLEIKRTVAAPSVFIFPPSDEQLKSGTASVVCLLNNFYPREAKVQWKVDNALQSGNSQESVTEQDSKDSTYSLSSTLTLSKADYEKHKVYACEVTHQGLSSPVTKSFNRGEC
# B7: bispecific antibody FP578-02 (CCR8/CTLA-4) (bispecific antibody, human IgG1, kappa)
# heavy: not shown
# light: B6 light with A34G
# What was measured:
# [1] = molecular target: T3, human C-C chemokine receptor type 8 (hCCR8) (human, UniProt P51685 1-355); experiment: cell-based or functional assay
# [2] = molecular target: T3, human C-C chemokine receptor type 8 …; experiment: cell-based or functional assay; remark: listed apart in the source
# [3] = molecular target: T3, human C-C chemokine receptor type 8 …; experiment: KinExA, hCCR8-expressing HEK293 cells
# Method: (§1) Humanized antibodies 504E12D8D12-HC1+LC1 and 504E12D8D12-HC1+LC1 (G34A) were tested by the Kinetic Exclusion Assay (KinExA, Sapidyne Instruments) to determine the affinity of binding to hCCR8-overexpressing cells. Briefly, polystyrene particles (#442178, Sapidyne Instruments) were coated with goat anti-human IgG Fc-specific Fab fragment (#109-007-008, Jackson ImmunoResearch Lab) according to the manufacturer's protocol. The antibodies were incubated with serial dilutions of hCCR8-expressing HEK293 cells at room temperature overnight by gently rotating to achieve equilibrium. The final antibody concentrations were adjusted to 0.05 nM and 1 nM, respectively. The supernatants were collected and run on KinExA 3200 (Sapidyne Instruments), and the antibody was captured by the coated polystyrene particles. The captured antibody was detected with Alexa Fluor 647-conjugated goat anti-human IgG (H+L) antibody (#109-605-003, Jackson ImmunoResearch Lab). Data was recorded and analyzed using KinExA Pro software (version 4.3.20).
# [4] = molecular target: T1, biotinylated recombinant human …; experiment: flow cytometry: hCCR8-expressing HEK293 cells pre-loaded with the antibody, washed, incubated with biotinylated human CTLA-4-Fc, detected with PE-streptavidin [panel B]
# Method: (§2) Bispecific antibodies FP578-01 and FP578-02 and anti-hCCR8 antibodies 504E12D8D12-HC1+LC1 (G34A) and 504E12D8D12-HC1+LC1 were incubated with hCCR8-expressing HEK293 cells for 1 hour at 4° C. The cells were washed and then incubated with biotinylated recombinant human CTLA-4-Fc chimera (#786704, BioLegend) for 1 hour at 4° C. After the cells were thoroughly washed, CTLA-4 was detected with phycoerythrin (PE)-conjugated streptavidin (#405203, BioLegend) by flow cytometry.
# [5] = molecular target: T1, biotinylated recombinant human …; experiment: flow cytometry: hCCR8-expressing HEK293 cells pre-loaded with the antibody, washed, incubated with biotinylated human CTLA-4-Fc, detected with PE-streptavidin [panel A]
# Method: as §2
# [6] = molecular target: T3, human C-C chemokine receptor type 8 …; experiment: cell-based or functional assay; remark: listed apart in the source
# [7] = molecular target: T3, human C-C chemokine receptor type 8 …; experiment: cell-based or functional assay; remark: listed apart in the source
# human CCR4 (hCCR4) = molecular target: T2, human CCR4 (hCCR4); experiment: flow cytometry on hCCR4-expressing CHO-K1 cells against parental CHO-K1 cells
# Method: The antibodies were further screened for binding to human CCR4 (hCCR4) by flow cytometry. The antibodies were incubated with CHO-K1 cells and hCCR4-expressing CHO-K1 cells for 60 minutes at 4° C. The cells were washed thoroughly with PBS buffer and were then incubated with FITC-conjugated goat anti-mouse IgG Fc antibody or anti-human IgG Fc antibody. Mean Fluorescence Intensity (MFI) of antibody binding on the cells were analyzed by flow cytometry (Table 7).
# [8] = molecular target: T3, human C-C chemokine receptor type 8 …; experiment: cell-based or functional assay; remark: listed apart in the source
# [9] = molecular target: T3, human C-C chemokine receptor type 8 …; experiment: KinExA, hCCR8-expressing cells
# Method: as §1
# The affinity of bispecific antibodies FP578-01 and FP578-02 were determined by the kinetic exclusion assay as described above.
# [10] = molecular target: T1, biotinylated recombinant human …; experiment: flow cytometry: hCCR8-expressing HEK293 cells pre-loaded with the antibody, washed, incubated with biotinylated human CTLA-4-Fc, detected with PE-streptavidin [panel C]
# Method: as §2
# [11] = molecular target: T1, biotinylated recombinant human …; experiment: flow cytometry: hCCR8-expressing HEK293 cells pre-loaded with the antibody, washed, incubated with biotinylated human CTLA-4-Fc, detected with PE-streptavidin [panel D]
# Method: as §2
# T3 sequence (P51685 whole entry): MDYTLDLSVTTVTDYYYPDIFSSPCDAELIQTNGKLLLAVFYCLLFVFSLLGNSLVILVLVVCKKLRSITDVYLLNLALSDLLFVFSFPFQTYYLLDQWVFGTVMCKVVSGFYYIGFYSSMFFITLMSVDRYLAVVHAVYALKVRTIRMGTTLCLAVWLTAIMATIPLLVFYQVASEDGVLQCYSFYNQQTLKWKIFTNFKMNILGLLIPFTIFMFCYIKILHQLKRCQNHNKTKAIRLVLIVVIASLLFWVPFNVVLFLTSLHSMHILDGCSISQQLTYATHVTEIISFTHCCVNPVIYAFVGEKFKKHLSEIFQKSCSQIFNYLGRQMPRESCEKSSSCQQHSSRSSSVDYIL
binder,measurement,setting,value
B1,"IC50 (nM), antagonist activity measured by calcium flux assay",[1],25.3 nM
B2,"IC50 (nM), antagonist activity measured by calcium flux assay",[2],8.6 nM
same,Kd,[3],0.072 nM
same,binding result,[4],no binding
B3,"IC50 (nM), antagonist activity measured by calcium flux assay",[1],13.1 nM
B4,"IC50 (nM), antagonist activity measured by calcium flux assay",[2],14.4 nM
same,Kd,[3],0.072 nM
same,binding result,[5],no binding
B5,"IC50 (nM), antagonist activity measured by β-arrestin assay",[6],2.18 nM
same,EC50 of ADCC activity (column head prints IC50 (nM)); ADCC/NFAT-reporter-Jurkat bioassay,[7],0.028 nM
same,binding result,human CCR4 (hCCR4),no binding
B6,"IC50 (nM), antagonist activity measured by β-arrestin assay",[8],4.26 nM
same,Kd,[9],0.102 nM
same,binding result,[10],binds
B7,"IC50 (nM), antagonist activity measured by β-arrestin assay",[8],3.6 nM
same,Kd,[9],0.104 nM
same,binding result,[11],binds
